The target in data set [1] is T1, MMP-9 sensitive peptide (GPRSLSG-RRCG) linked ibuprofen (not fully specified).
T1 chain: GPRSLSGRRCG

Data set [2] has as its target T2, HNE peptide substrate H2, GRCR-PMAVVQSVP-RCRG (not fully specified).
T2 chain: GRCRPMAVVQSVPRCRG

B1: human neutrophil elastase (HNE) (protein)
chain: IVGGRRARPHAWPFMVSLQLRGGHFCGATLIAPNFVMSAAHCVANVNVRAVRVVLGAHNLSRREPTRQVFAVQRIFENGYDPVNLLNDIVILQLNGSATINANVQVAQLPAQGRRLGNGVQCLAMGWGLLGRNRGIASVLQELNVTVVTSLCRRSNVCTLVRGRQAGVCFGDSGSPLVCNGLIHGIASFVRGGCASGLYPDAFAPVAQFVNWIDSIIQ
As for B1, in data set [1], the “maximum cumulative drug release at 48 hours from the dual-responsive conjugate hydrogel, HNE alone (1 µg/ml)” value is listed as “maximum cumulative drug release reached 24%, which was much lower than the release in enzyme MMP-9 solution”; the “specificity of protease-triggered ibuprofen liberation (FIG. 10B)” value was “the peptide sequence, GPRSLSGRRCG (SEQ ID NO: 20), as a spacer illustrated a good specificity toward MMP-9 compared to cathepsin B and human neutrophil elastase (HNE)”. Besides, the “degradation of H2-M2 combinational hydrogel and release of PLGA particles over 24 hours” value in data set [2] was “H2 and M2 peptide substrates were preferentially cleaved by HNE and MMP-9 proteases respectively”.

The record behind these values is patent US20230039279.
